In patent US20200270346A1:

Assays:
[1] = biological target: human TIGIT expressed on cells (human) (UniProt Q495A1); experiment: cell-based or functional assay
[2] = biological target: human TIGIT-Fc protein (human) (UniProt Q495A1); experiment: SPR, Biacore T200, antibody captured on anti-mouse IgG, TIGIT-Fc in solution, 1:1 Langmuir fit
[3] = biological target: Human TIGIT-His (extracellular domain of hTIGIT with a histidine tag) (human) (UniProt Q495A1); experiment: SPR, Biacore T200, antibody captured on anti-mouse IgG, TIGIT-His in solution, 1:1 Langmuir fit
Sequence of Human TIGIT-His (extracellular domain of hTIGIT with a histidine tag) (human) (Q495A1 25-141 limits assumed): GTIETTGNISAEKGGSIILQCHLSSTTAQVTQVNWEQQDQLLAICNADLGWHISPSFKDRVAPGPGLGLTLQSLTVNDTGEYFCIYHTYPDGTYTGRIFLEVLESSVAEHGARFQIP

Sequence of human TIGIT-Fc protein (human) (Q495A1 25-141): as the sequence (Q495A1 25-141 limits assumed) above
Sequence of human TIGIT expressed on cells (human) (Q495A1 25-244): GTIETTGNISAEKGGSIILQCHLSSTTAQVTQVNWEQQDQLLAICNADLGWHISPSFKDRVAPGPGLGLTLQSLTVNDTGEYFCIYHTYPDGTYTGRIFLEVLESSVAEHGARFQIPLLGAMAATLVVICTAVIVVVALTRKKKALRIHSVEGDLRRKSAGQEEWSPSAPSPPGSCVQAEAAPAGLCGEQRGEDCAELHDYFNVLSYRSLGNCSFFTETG

EC50 of IL-2 rescue in hTIGIT-Jurkat / THP-1 co-culture [1]: 0.24 µg/mL
Kd [2]: 0.0165 nM
Kd [3]: 0.0363 nM
Substance: MBSA43 (commercial mouse anti-human TIGIT antibody, eBioscience Cat #12-9500-42)
